pKd: −log10 of the molar value. One block for each substance: values may come before it.
What was measured:
[1] = biological target: Macaca fascicularis CD3ε/δ-Fc fusion heterodimer (Macaca fascicularis) (UniProt Q95LI8); test: SPR Biacore, CODV-Fab
[2] = biological target: human CD3ε/δ-Fc fusion heterodimer (hCD3ε/δ-hFc) (human) (UniProt P04234); test: SPR Biacore, CODV-Fab
[3] = biological target: human CD123 on cells (human) (UniProt P26951); test: cell-based or functional assay
[4] = biological target: Macaca fascicularis CD3 (TCR complex) on cyno HSC-F cells (Macaca fascicularis) (UniProt Q95LI5); test: flow cytometry, cyno HSC-F
[5] = biological target: human CD3 (CD3ε of the TCR complex) on human T cells (human) (UniProt P07766); test: flow cytometry, Jurkat E6-1 (w/o primary ab: 7)
[6] = biological target: Macaca fascicularis CD3 (TCR complex) on cyno HSC-F cells (Macaca fascicularis) (UniProt Q95LI5); test: flow cytometry, cyno HSC-F (control row of Table 2; same value as in Table 1)
[7] = biological target: human CD3 (CD3ε of the TCR complex) on human T cells (human) (UniProt P07766); test: flow cytometry, Jurkat E6-1 (w/o primary ab: 7; control row of Table 2; same value as in Table 1)
[8] = biological target: Macaca fascicularis CD3ε/δ-Fc fusion heterodimer (Macaca fascicularis) (UniProt Q95LI8); test: SPR Biacore, Fab-fragment
[9] = biological target: human CD3ε/δ-Fc fusion heterodimer (hCD3ε/δ-hFc) (human) (UniProt P04234); test: SPR Biacore, Fab-fragment
[10] = biological target: recombinant huCD3ε/γ, Fc-tagged (PB01225) (human) (UniProt P07766); test: SPR, Fc-captured CD3, 100 nM
[11] = biological target: Macaca fascicularis CD3ε/δ-Fc fusion heterodimer (Macaca fascicularis) (UniProt Q95LI8); test: SPR, SP-34 used as IgG
[12] = biological target: human CD3ε/δ-Fc fusion heterodimer (hCD3ε/δ-hFc) (human) (UniProt P04234); test: SPR, SP-34 used as IgG
[13] = biological target: Macaca fascicularis CD3ε/δ-Fc fusion heterodimer (Macaca fascicularis) (UniProt Q95LI8); test: SPR, cyno against human CD3ε/δ

Sequence of Macaca fascicularis CD3ε/δ-Fc fusion heterodimer (Macaca fascicularis) (chain, as listed by the source mutant, chain 1 of 2): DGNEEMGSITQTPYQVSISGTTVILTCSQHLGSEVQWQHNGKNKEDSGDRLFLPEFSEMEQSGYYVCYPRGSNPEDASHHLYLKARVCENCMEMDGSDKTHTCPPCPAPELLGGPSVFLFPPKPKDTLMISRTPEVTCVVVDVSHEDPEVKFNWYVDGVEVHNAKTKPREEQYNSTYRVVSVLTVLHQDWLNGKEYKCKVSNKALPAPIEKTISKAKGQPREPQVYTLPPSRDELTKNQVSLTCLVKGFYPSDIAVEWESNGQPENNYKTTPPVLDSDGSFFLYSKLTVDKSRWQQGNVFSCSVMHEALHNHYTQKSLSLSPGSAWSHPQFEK
Sequence of Macaca fascicularis CD3ε/δ-Fc fusion heterodimer (Macaca fascicularis) (Q95LI8 22-105, stated change not applied, chain 2 of 2): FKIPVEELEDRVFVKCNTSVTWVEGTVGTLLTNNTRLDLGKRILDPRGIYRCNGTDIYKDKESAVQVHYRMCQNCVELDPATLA
Sequence of human CD3ε/δ-Fc fusion heterodimer (hCD3ε/δ-hFc) (human) (chain, as listed by the source mutant, chain 1 of 2): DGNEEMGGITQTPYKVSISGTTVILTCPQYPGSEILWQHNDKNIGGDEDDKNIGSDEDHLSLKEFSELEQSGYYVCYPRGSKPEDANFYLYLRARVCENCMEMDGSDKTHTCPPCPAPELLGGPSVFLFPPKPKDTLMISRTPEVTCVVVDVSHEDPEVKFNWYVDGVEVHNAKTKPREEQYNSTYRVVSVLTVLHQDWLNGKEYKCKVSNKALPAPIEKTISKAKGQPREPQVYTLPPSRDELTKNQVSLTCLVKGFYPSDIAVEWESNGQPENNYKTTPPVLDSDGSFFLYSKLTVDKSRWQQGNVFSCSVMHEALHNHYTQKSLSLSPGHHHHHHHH
Sequence of human CD3ε/δ-Fc fusion heterodimer (hCD3ε/δ-hFc) (human) (P04234 22-105, stated change not applied, chain 2 of 2): as the sequence (Q95LI8 22-105, stated change not applied, chain 2 of 2) above, with V5I, K15N, V20I, T32S, N33D, N34I, A64T, N74S, L83V counted along it
Sequence of Macaca fascicularis CD3 (TCR complex) on cyno HSC-F cells (Macaca fascicularis) (Q95LI5 22-198 limits assumed, one chain of several): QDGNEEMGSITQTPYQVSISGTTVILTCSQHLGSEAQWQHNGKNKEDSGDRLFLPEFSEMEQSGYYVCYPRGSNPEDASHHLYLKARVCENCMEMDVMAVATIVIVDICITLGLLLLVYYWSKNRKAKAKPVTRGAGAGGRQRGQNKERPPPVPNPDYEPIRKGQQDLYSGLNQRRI
Sequence of human CD123 on cells (human) (P26951 19-378): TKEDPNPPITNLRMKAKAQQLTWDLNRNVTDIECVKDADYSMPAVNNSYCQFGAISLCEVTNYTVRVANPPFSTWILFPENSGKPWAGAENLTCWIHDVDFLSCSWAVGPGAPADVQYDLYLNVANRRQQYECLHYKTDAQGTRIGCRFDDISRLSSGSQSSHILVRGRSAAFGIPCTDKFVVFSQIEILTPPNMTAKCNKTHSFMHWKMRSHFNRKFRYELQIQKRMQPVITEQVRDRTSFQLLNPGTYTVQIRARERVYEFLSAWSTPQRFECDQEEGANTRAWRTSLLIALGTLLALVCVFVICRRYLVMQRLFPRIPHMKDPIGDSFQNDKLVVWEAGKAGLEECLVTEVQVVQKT

Substance: I2C Fab (monospecific anti-CD3 Fab)
pKd [8]: 9.30
pKd [9]: 9.89
koff [9]: 0.0013 s⁻¹
kon [9]: 1.1e+07 M⁻¹ s⁻¹

Substance: OKT3 (antibody)
RU of Fab binding at 100 nM [10]: 3 RU

Substance: SP-34 (antibody)
pKd [11]: 7.89
koff [11]: 0.0028 s⁻¹
kon [11]: 220000 M⁻¹ s⁻¹
pKd [12]: 8.57
koff [12]: 0.003 s⁻¹
kon [12]: 1.1e+06 M⁻¹ s⁻¹
ratio KD(cy)/KD(hu) [13]: 5

Second part, led by results:

pKd [1]: 9.40
pKd [2]: 9.30
koff [2]: 0.002 s⁻¹
kon [2]: 4e+06 M⁻¹ s⁻¹
Substance: CODV-Fab 7G3 × I2C (bispecific antibody)
Activity EC50 (cytotoxic assay, THP-1 targets + primary human T cells) [3]: 0.02 µg/mL

geometric mean of relative fluorescence intensity [4]: 1260 rfu
geometric mean of relative fluorescence intensity [5]: 7 rfu
geometric mean of relative fluorescence intensity [6]: 1260 rfu
geometric mean of relative fluorescence intensity [7]: 7 rfu
Substance: FN18 (antibody)

Source: US20180222987A1
